Tests used:
[1] = biological target: T1, GST-tagged full-length DDX3 (GST-DDX3^1–662) (human, UniProt O00571 1-662); assay: pull-down; bead-bound GST-DDX3 variants incubated with recombinant hnRNPK or the KI segment; binding buffer PBS with 0.5% NP-40, 0.25% sodium deoxycholate, 5% glycerol, protease inhibitors; 4 °C, 1 h; three washes; SDS-PAGE; conditions: both partners purified
T1 construct: Vector pGEX-5X-1

[2] = biological target: T2, GST-tagged C-terminal region of DDX3 (GST-DDX3^535–662) (human, UniProt O00571 535-662); assay: as above; conditions: both partners purified
T2 construct: Vector pGEX-5X-1; also called DDX3 C-terminus
T2 sequence (O00571 535-662): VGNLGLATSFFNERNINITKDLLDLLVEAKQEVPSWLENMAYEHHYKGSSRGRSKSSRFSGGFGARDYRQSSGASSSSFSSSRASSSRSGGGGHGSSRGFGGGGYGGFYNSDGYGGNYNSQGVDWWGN

T1 sequence (O00571 whole entry): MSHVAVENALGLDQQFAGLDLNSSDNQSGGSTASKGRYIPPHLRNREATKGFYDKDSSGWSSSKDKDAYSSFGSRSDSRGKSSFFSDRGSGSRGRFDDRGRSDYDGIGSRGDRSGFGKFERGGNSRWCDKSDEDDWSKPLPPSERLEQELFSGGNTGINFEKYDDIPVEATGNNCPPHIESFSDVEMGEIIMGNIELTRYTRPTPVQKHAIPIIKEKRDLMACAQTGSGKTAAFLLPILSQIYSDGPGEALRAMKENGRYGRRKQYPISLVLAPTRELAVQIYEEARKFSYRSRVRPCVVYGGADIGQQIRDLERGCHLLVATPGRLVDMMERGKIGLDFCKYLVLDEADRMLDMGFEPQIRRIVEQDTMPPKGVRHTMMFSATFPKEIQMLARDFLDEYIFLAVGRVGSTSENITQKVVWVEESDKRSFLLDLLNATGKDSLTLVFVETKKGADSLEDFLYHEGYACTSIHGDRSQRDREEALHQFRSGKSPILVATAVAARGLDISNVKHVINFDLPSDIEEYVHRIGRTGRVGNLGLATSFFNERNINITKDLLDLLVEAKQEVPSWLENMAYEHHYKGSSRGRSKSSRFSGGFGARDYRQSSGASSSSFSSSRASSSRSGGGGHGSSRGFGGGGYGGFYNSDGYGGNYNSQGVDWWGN

B1: His6-tagged Trx-KI (K-interactive region of hnRNPK, amino acids 240–336) (domain or fragment, UniProt P61978 240-336, looked up)
chain: TMMFDDRRGRPVGFPMRGRGGFDRMPPGRGGRPMPPSRRDYDDMSPRRGPPPPPPGRGGRGGSRARNLPLPPPPPPRGGDLMAYDRRGRPGDRYDGM
notes: also called his-KI; KI segment; source: E. coli BL21 DE3 pLysS, purified (Ni-NTA agarose, dialysis)
[1]
  binding result: binds
[2]
  binding result: binds
